Measurements taken from patent US20180071389A1 (HER MAJESTY THE QUEEN IN THE RIGHT OF CANADA AS REPRESENTED …, published 2018).

T1: sGP 1-295aa (Ebola virus (ZEbov by the title of …, UniProt P60170 33-295))
T1 sequence: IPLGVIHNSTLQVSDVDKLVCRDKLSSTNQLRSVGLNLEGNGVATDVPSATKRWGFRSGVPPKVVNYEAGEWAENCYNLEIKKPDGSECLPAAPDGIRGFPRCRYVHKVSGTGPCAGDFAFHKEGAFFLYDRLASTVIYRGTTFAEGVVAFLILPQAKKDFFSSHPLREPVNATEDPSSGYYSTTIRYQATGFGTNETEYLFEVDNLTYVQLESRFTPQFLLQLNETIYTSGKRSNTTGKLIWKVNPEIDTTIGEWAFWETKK

T2: Mucin domain 333-458aa (Ebola virus (ZEbov by the title of …, UniProt Q05320 333-458))
T2 sequence: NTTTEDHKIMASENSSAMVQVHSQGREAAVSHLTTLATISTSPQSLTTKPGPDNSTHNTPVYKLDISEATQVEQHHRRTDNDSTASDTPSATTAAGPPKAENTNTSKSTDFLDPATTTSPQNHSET

T3: GP1 1-501aa (Ebola virus (ZEbov by the title of …, UniProt Q05320 33-501))
T3 sequence: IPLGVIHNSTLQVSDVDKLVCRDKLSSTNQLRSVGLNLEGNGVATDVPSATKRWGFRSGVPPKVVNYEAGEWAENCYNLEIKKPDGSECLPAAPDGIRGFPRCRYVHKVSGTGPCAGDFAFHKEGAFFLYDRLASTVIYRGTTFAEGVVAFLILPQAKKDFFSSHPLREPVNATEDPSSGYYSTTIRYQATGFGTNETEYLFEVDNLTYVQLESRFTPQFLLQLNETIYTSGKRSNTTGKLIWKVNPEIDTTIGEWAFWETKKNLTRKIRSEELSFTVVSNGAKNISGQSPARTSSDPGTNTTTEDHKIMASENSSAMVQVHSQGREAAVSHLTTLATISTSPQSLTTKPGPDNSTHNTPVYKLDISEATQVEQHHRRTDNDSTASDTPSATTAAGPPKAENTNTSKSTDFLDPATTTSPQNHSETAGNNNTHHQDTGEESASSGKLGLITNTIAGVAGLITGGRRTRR


Experiments:
Assay in all cases: ELISA, antigen coated 0.3 µg/well, serial dilutions of MAb
[1] = target: T1, sGP 1-295aa
[2] = target: T2, Mucin domain 333-458aa
[3] = target: T3, GP1 1-501aa

| Binder | binding result [1] | binding result [2] | binding result [3] |
| --- | --- | --- | --- |
| monoclonal antibody 5E6 (antibody, V domains shown) VH: GGGLVKPGGSLKLSCAASGSAFSRYDMSWVRQTPEKRLEWVAYISRGGGFIYYPDTVKGRFTISRDNAKNTLYLQMSSLKSDDTAMYYCARHVYYGSSPLYAMDYWGQGTSVTVSS VL: SASFSLGASAKLTCTLSSQHSTFTIEWYQQQPLKPPKYVMELKKDGSHSTGDGIPDRFSGSSSGADRYLSISNIQPEDEAIYICGVGDTINEQFVYVFGGGTKVTVLG | no binding (tested: Cut off was 2X background) |  |  |
| monoclonal antibody 7C9 (antibody, V domains shown) VH: GAELVKPGASVKLSCTASGFNIKDTYMHWVKERPDKGLEWIGRIDPANGNTKCDSRFQGKATITADTSSNTAYLQLSSLTSEDTAVYYCARRIYFGKGFDFWGQGTTLTVSS VL: SSLSVSAGEKVTMSCKSSQSLFNSGDQKNYLAWYQQKPGQPPKLLIYGASTRESGVPDRFTGSGSGTDFTLTISSVQAEDLAVYYCQNDQFYPPTFGDGTKLDLKR | no binding (tested: Cut off was 2X background) |  |  |
| monoclonal antibody 2G4 (antibody, V domains shown) VH: GGGLMQPGGSMKLSCVASGFTFSNYWMNWVRQSPEKGLEWVAEIRLKSNNYATHYAESVKGRFTISRDDSKRSVYLQMNTLRAEDTGIYYCTRGNGNYRAMDYWGQGTSVTVSS VL: ASLSVSVGETVSITCRASENIYSSLAWYQQKQGKSPQLLVYSATILADGVPSRFSGSGSGTQYSLKINSLQSEDFGTYYCQHFWGTPYTFGGGTKLEIKR | no binding (tested: Cut off was 2X background) | no binding (tested: Cut off was 2X background) | no binding (tested: Cut off was 2X background) |
| monoclonal antibody 1H3 (antibody, V domains shown) VH: GAELVKPGASVKLSCTASGFNIKDTYIHWVKQGPEQGLEWIGRIDPANGNTKYDPKFQGKATITADTSSNTAYLQLSGLTSEDTAVYYCARESRISTMLTTGYFDYWGQGTTLTVSS VL: AIMSASPGEKVTMTCSASSSVSYMYWYQQKPGSSPRLLIYDTSNLASGVPVRFSGSGSGTSYSLTISRMEAEDAATYYCQQWSSYPYTFGGGTKLEIKR |  | no binding (tested: Cut off was 2X background) |  |
| monoclonal antibody 4G7 (antibody, V domains shown) VH: GPELEMPGASVKISCKASGSSFTGFSMNWVKQSNGKSLEWIGNIDTYYGGTTYNQKFKGKATLTVDKSSSTAYMQLKSLTSEDSAVYYCARSAYYGSTFAYWGQGTLVTVSA VL: ASLSASVGETVTITCRASENIYSYLAWYQQKQGKSPQLLVYNAKTLIEGVPSRFSGSGSGTQFSLKINSLQPEDFGSYFCQHHFGTPFTFGSGTELEIKR | no binding (tested: Cut off was 2X background) | no binding (tested: Cut off was 2X background) |  |
| monoclonal antibody 10C8 (antibody, V domains shown) VH: GAELVRSGASVKLSCTSSGFNIKDYFLHWVKQRPEQGLEWIGWIDPENGDTEYAPKFQDKATMTADTSSNTAYLHLSSLTSEDTGVYYCNADGNYGKNYWGQGTTLTVSS VL: LSLPVSLGDQASISCRSSQSLVHSNGNTFLHWYLQKPGQSPKLLIYRVSNRFSGVPDRFSGSGSGTDFTLKISRVEAEDLGVYFCSQSTHVPPYTFGGGTKLEIKR | no binding (tested: Cut off was 2X background) |  |  |
| monoclonal antibody 7G4 (antibody, V domains shown) VH: GGGLVQPGGSLRLSCATSGFTFTDHYMGWVRQPPGKALEWLAFVRYKAKGYTTEYTASVKGRFTISRDNSQSILYLQMNTLRTEDSATYYCARDRGGYVGAMDYWGQGTSVTVSS VL: LSLPVSLGDQASISCRSSQSLVHRNGNTYFHWYLQKPGQSPKLLIYKVSNRFSGVPDRFSGSGSGTDFTLKISRVEAEDLGVYFCSQSTHVPYTFGGGTKLEIKR | no binding (tested: Cut off was 2X background) |  |  |
| monoclonal antibody 5D2 (antibody, V domains shown) VH: GPGLVRPSQSLSLTCTVTGYSITSDYAWNWIRQFPGNKLEWLGYITNTGSTGFNPSLKSRISITRDTSKNQFFLQLISVTTEDTATYHCARGLAYWGQGTLVTVSA VL: not shown | no binding (tested: Cut off was 2X background) |  |  |
